Experiments:
[1] = target: UP1 (UniProt P09651-2 1-196); assay: ITC; 100 mM KCl; ITC/CD: 20 mM Tris pH 8.0, 100 mM KCl, 25 C; NMR: 10 mM potassium phosphate pH 6.5, 100 mM KCl, 298 K (10% D2O for HSQC); conditions: protein: recombinant, tags: C-terminal 6xHis
[2] = target: T1, UP1+RGG (UniProt P09651-2 1-249); assay: as above; conditions: protein: recombinant, tags: C-terminal 6xHis
[3] = target: T2, RGG-box (isolated) (UniProt P09651-2 197-249); assay: as above; conditions: protein: recombinant; tags: GST removed by TEV; intramolecular parallel G4
T2 sequence (P09651 197-249): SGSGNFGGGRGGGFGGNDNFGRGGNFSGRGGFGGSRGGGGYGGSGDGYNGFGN

[4] = target: T1, UP1+RGG; assay: ITC; 100 mM KCl, 20% PEG 200; ITC/CD: 20 mM Tris pH 8.0, 100 mM KCl, 25 C; NMR: 10 mM potassium phosphate pH 6.5, 100 mM KCl, 298 K (10% D2O for HSQC); conditions: protein: recombinant; tags: C-terminal 6xHis; intramolecular parallel G4
[5] = target: T2, RGG-box (isolated); assay: NMR HSQC CSP titration (global fit); 100 mM KCl; ITC/CD: 20 mM Tris pH 8.0, 100 mM KCl, 25 C; NMR: 10 mM potassium phosphate pH 6.5, 100 mM KCl, 298 K (10% D2O for HSQC); conditions: protein: recombinant; tags: GST removed by TEV; intramolecular parallel G4
[6] = parallel G4 dimer of 2 strands, two loops
[7] = parallel G4 tetramer of 4 strands, no loops

Chain of UP1 (P09651 1-196): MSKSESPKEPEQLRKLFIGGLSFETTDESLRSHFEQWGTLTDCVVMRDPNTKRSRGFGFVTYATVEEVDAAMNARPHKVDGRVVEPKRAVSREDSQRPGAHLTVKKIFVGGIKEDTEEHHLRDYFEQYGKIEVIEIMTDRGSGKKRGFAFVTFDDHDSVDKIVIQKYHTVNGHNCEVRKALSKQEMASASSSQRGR
T1 sequence (P09651 1-249): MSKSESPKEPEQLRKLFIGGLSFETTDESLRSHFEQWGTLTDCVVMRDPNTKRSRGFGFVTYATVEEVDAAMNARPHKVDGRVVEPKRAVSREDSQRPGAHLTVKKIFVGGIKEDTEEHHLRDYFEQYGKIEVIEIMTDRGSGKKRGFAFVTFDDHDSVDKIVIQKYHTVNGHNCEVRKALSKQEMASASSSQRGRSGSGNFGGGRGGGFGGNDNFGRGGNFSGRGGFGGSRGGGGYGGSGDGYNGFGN

Binder: UUAGGGUUAGGG (structured_RNA) [TERRA-12]
- Kd [1, 6]: 2040 ± 470 nM
- Kd [2, 6]: 1070 ± 140 nM

Binder: UUAGGG (structured_RNA) [TERRA-6]
- Kd [1, 7]: 2020 ± 170 nM
- Kd [2, 7]: 2380 ± 230 nM

Binder: UUAGGGUUAGGGUUAGGGUUAGGG (structured_RNA) [TERRA-24]
- Kd [3]: 9000 ± 4300 nM
- Kd ([1]; intramolecular parallel G4): 1710 ± 170 nM
- Kd ([2]; intramolecular parallel G4): 920 ± 170 nM
- Kd [4]: 3000 ± 550 nM
- Kd [5]: 11000 ± 1500 nM

Binder: GAGUAACCCGUAUCGUGA (ssRNA) [ssRNA-18]
- Kd ([1]; single strand, 18 nt): 2370 ± 490 nM
- Kd ([2]; single strand, 18 nt): 2280 ± 260 nM
